Laboratory results from patent US20130078188.

Columns and labels:
[1] = system: FRET-ACPP 2
[2] = system: RACPP1
[3] = system: RACPP2
[4] = system: Cy7-NH-e9-c(S-Peg12) oDPRSFL-r9-c(Cy5)-CONH2 (5, RACPPDPRSFL)
[5] = system: Cy7-NH-e9-c(S-Peg12) oPPRSFL-r9-c(Cy5)-CONH2 (10, RACPPPPRSFL)
[6] = system: Cy7-NH-e9-c(S-Peg12)oPLGC(Me)AG-r9-c(Cy5)-CONH2 (20, RACPPPLGC(Me)AG)
Cy7-NH-e9-c(S-Peg12)oPLGC(Me)AG-r9-c(Cy5)-CONH2 (20, RACPPPLGC(Me)AG), sequence (chain, as listed by the source): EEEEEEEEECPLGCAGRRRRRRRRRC

Cy7-NH-e9-c(S-Peg12) oPPRSFL-r9-c(Cy5)-CONH2 (10, RACPPPPRSFL), sequence (chain, as listed by the source): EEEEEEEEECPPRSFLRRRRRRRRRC
Cy7-NH-e9-c(S-Peg12) oDPRSFL-r9-c(Cy5)-CONH2 (5, RACPPDPRSFL), sequence (chain, as listed by the source): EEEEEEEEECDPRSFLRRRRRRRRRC
MMP-9, sequence (chain, as listed by the source): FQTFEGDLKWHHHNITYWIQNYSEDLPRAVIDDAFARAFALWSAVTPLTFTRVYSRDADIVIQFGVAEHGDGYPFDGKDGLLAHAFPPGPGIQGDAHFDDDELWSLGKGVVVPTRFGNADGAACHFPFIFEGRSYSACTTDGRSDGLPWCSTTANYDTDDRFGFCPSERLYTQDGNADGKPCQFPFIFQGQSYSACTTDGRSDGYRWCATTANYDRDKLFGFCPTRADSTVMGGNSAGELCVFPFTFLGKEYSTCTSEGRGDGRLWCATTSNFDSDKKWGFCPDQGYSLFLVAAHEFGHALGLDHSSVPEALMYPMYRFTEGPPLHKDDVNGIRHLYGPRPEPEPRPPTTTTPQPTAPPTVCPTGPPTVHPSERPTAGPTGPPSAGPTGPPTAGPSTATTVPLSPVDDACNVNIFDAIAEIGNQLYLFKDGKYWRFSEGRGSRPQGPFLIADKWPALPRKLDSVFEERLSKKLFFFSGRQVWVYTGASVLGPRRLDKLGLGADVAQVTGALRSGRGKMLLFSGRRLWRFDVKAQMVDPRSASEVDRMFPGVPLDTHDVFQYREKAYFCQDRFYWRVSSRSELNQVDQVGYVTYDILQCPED
RACPP2, sequence (chain, as listed by the source): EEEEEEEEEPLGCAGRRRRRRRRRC

| Substance | fraction of peptide cleaved, HPLC [1] | increase of the Cy5 peak, extrapolated to 100% cleavage [1] | decrease in Cy7 re-emission on cleavage, in mouse plasma [2] | extent of cleavage [2] | increase in Cy5 emission on cleavage, in mouse plasma [2] | increase in the ratio of 670/780 nm emissions on cleavage [2] | peptide cleavage, tricine SDS-PAGE with Cy5 and Cy7 imaging [3] | kcat/Km [4] | kcat/Km (cleavage activity) [5] | peptide cleavage, SDS-PAGE with Cy5/Cy7 ratio imaging [6] | peptide cleavage, SDS-PAGE with Cy5/Cy7 ratio imaging [4] | change in Cy5/Cy7 emission ratio on cleavage, in plasma [5] | decrease in Cy7 re-emission on cleavage, in plasma [5] | increase in Cy5 emission on cleavage, in plasma [5] | kcat/Km [5] | peptide cleavage, SDS-PAGE with Cy5/Cy7 ratio imaging [5] |
| --- | --- | --- | --- | --- | --- | --- | --- | --- | --- | --- | --- | --- | --- | --- | --- | --- |
| MMP-9 | 87% of the peptide had been cleaved | the Cy5 peak increases about 7 fold | decreased Cy7 re-emission by ˜4 fold | after (red dashed curve)>95% complete cleavage with MMP-9 | increased Cy5 emission by ˜10 fold | net 40-fold increase in the ratio of 670/780 nm emissions | All three components (intact uncleaved peptide, r9 and e9 fragments) are well separated and can be seen as distinct bands in the gel |  |  |  |  |  |  |  |  |  |
| factor Xa |  |  |  |  |  |  |  | 6200 M⁻¹ s⁻¹ | no detectable activity towards RACPPPPRSFL | not cleaved by any of the pro-coagulation enzymes |  |  |  |  |  |  |
| thrombin |  |  |  |  |  |  |  | kcat/km=1.2×10^4 M^-1s^-1 |  | not cleaved by any of the pro-coagulation enzymes | cleaved by thrombin in a time dependent manner | 34 fold change in Cy5/Cy7 emission ratio | 3.8 fold decrease in Cy7 re-emission | 8.8 fold increase in Cy5 emission | 7300 M⁻¹ s⁻¹ | cleaved by thrombin in a time dependent manner and that RACPPPPRSFL(10) is selective for thrombin |
